The series relates to MS2 coat protein. Put plainly: apparent KD of MS2 coat protein; designed switch direction (-1 OFF switch, 1 ON switch): 1; higher = weaker reporter binding. Summed up:
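The buffer was Tris-HCl pH 7.5 with KCl, MgCl2, BSA, DTT, tRNA and Tween-20. In it, SNAP-549-labelled MS2 coat protein was titrated in doubling steps from 0.7 or 1.5 nM to 3 µM over chip-bound RNA switches transcribed by stalled E. coli RNA polymerase on Illumina chips. Apparent KD is the per-design median over clusters of curve fits to normalised fluorescence.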

Setting [1] is: Eterna round: R95, input ligand: microRNA oligo, concentration not stated.
Setting [2] is: input ligand: microRNA oligo, concentration not stated.
The mark [3] stands for this setting: Eterna round: R95, input ligand: FMN 200 uM.
Where [4] appears, read: Eterna round: R95, input ligand: none.

On to “CAGUGCUGUUGAGAGGAUAUGCGGCGACGGACAUGAGGAUCACCCAUGUUAGCGACAGCGUUGCGGCAGAAGGCUCUGCCCGCUG [Soteed Omei mod 50] (puzzle: Same State 2)”, for which, under setting [1], the “apparent KD of MS2 coat protein” value amounted to 15.3 nM.
With “CCAUAACAGUGAGGAUAUCGUUGCGAUAAGUGACGAGAAGGCAUUCAUGUGAAAUAAACAUACAUGAGGAUCACCCAUGUUGUA [Omei SS(NG)1 B] (Eterna round: R96, puzzle: Same State NG 1)”, the “apparent KD of MS2 coat protein” value is 18.2 nM (input ligand: FMN 200 uM), 17.1 nM under setting [2] and 20.6 nM (input ligand: none).
Regarding “CCGGUUAAUGGAGGAUAUGGAGCCUUAUUGGCUCCAGAAGGCUAAACAUGAGGAUCACCCAUGUUACCGGCGGUCAAUAGACCG [Eli NG1ss - 61] (Eterna round: R96, puzzle: Same State NG 1)”, the “apparent KD of MS2 coat protein” value (input ligand: FMN 200 uM) was 11.5 nM, the “apparent KD of MS2 coat protein” value under setting [2] turned out to be 18 nM and the “apparent KD of MS2 coat protein” value (input ligand: none) was 23 nM.
As for “CCGUAGAUGGGACAGGAUAUGACUGUCGUCACAUGAGGAUCACCCAUGUCCCGGCAAUGCCACCGUUAGAAGGGUCCCGUCUCGG [Tiquiser] (puzzle: Same State 2)”, the “apparent KD of MS2 coat protein” value under setting [1] came out at 12.2 nM.
For the sequence “CGACUAAAGUCACAGGAUAUACGCCGUACUACAUGAGGAUCACCCAUGUUCGGGACAGUCGCGGUGUAGAAGGGUGUGGGUCAAC [Errabeed] (puzzle: Same State 2)”, the “apparent KD of MS2 coat protein” value under setting [3] worked out at 17.6 nM, the “apparent KD of MS2 coat protein” value under setting [1] amounted to 31.2 nM and the “apparent KD of MS2 coat protein” value under setting [4] was 38.9 nM.
With “CGCAACGGCUGAGGAUAUGUCAACACGGGACGGGCAGAAGGUAGCAACCACCCACAUGAGGAUCACCCAUGUAUCCAAAUUCAC [Eternabot solution 38] (Eterna round: R96, puzzle: Same State NG 1)”, the “apparent KD of MS2 coat protein” value was determined as 48.9 nM (input ligand: FMN 200 uM), 41.5 nM under setting [2] and 42.3 nM (input ligand: none).
In the same order, the values of “CGCCAGAGAGCAGGAUAUGGGCCACAGCCUAAGGGCUGUGAACUCACAUGAGGAUCACCCAUGUCCCAGAAGGGCUCCUAGCUA [Erzabe] (Eterna round: R96, puzzle: Same State NG 2)” are 203 nM, 701 nM and 1920 nM.
Take “CGGCGCUGUCGAGAGGAUAUGCGGUGAUGGACAUGAGGAUCACCCAUGUUAGCGAUAGCAUCACGGUAGAAGGCUCCACAGCCGU [Soteed Omei mod 13] (puzzle: Same State 2)”: the “apparent KD of MS2 coat protein” value under setting [1] was determined as 23 nM.
Consider “CGGCUCCGUGGAGGAUAUGGGCCUGCCCGGGAUACCGGGCCUAACACAUGAGGAUCACCCAUGUCCCAGAAGGCCGCUGGAGCC [Cebeladi] (Eterna round: R96, puzzle: Same State NG 2)”, for which the “apparent KD of MS2 coat protein” value is, setting by setting: (input ligand: FMN 200 uM) 12.7 nM; under setting [2], 26.2 nM; (input ligand: none) 52.3 nM.
“CGUAGGUAGCUGGAGGAUAUCCGAGUGGUAACAUGAGGAUCACCCAUGUGAUGUGAGGAACAUGAGGAGAAGGCUAGCUGCCUGC [JL-ss2-3.12 JL mod] (puzzle: Same State 2)”: the “apparent KD of MS2 coat protein” value runs as follows: under setting [3], 23.1 nM; under setting [1], 37.5 nM; under setting [4], 38.2 nM.
On the same counts, the results for “CGUAGGUGGCUGGAGGAUAUUCGAGUGGUAACAUGAGGAUCACCCAUGUGUCGCGCGGUACAUGAGGAGAAGGCUGGCGGCCUGC (puzzle: Same State 2)” are 19.7 nM, 69.4 nM and 178 nM.
As to “CGUCGUUUGAUAGGAUAUCGCUUUACAUGAGGAUCACCCAUGUUUCCCACGCUGGUUUUUCUUUCCGAGAAGGAUUCUGAUGUU [salish99_SSNG02_r04_029] (Eterna round: R96, puzzle: Same State NG 2)”, the “apparent KD of MS2 coat protein” value was 44.6 nM (input ligand: FMN 200 uM), 31.4 nM under setting [2] and 40.6 nM (input ligand: none).
In the same order, the values of “CGUCGUUUGAUAGGAUAUCGCUUUACAUGAGGAUCACCCGGGUUUACCACGCUGGUUUUUCUUUCCGAGAAGGAUUCUGAUGUU [salish99_SSNG02_r04_028] (Eterna round: R96, puzzle: Same State NG 2)” are 117 nM, 20.7 nM and 29 nM.
In the case of “CGUUCUUACUCGGUACGGUGAGUAGAGGAACAUGAGGAUCACCCAUGUAUGAGCUUUUUGCUCGUGAUUAACAGUAG [JR_SHM208a_Sub014] (puzzle: Sensor for hsa-mir-208a)”, the “apparent KD of MS2 coat protein” value amounted to 58 nM under setting [3], 63.3 nM under setting [1] and 105 nM under setting [4].
On the same counts, the results for “CUAACAACAAGUUGCAGUGUUCGUCUUUAACAUGAGGAUCACCCAUGUAAUAGCCCGGUAGAAGCGCUCGGGCCACC [Anaesrain] (puzzle: Sensor for hsa-mir-208a)” are 32.8 nM, 38.1 nM and 36.3 nM.
Regarding “CUACGCGCCGCAGGAUAUGCCGACCCGUGUUGAGCAGAAGGGCGCAACAUGAGGAUCACCCAUGUUGAAAGAGCGCAAAAUUAA [Zaesre] (Eterna round: R96, puzzle: Same State NG 1)”, the “apparent KD of MS2 coat protein” value stood at 11.1 nM (input ligand: FMN 200 uM), 12.5 nM under setting [2] and 16 nM (input ligand: none).
Take “CUCAAACAUGAGGAUCACCCAUGUGUUGUCAUGGGAGGAUAUCUAAGUUCGUUGUAUUCGGGAGAAGGCCUAUGUC [× ×•×ª×• ×ž×“×™× ×” × ×—×ª-10] (puzzle: Same State 1)”: the “apparent KD of MS2 coat protein” value under setting [1] worked out at 199 nM.
For “CUCAACAACACAGGAUAUCCAGGGAAAAGAACUGGAGAAGGGUGACCAACAUGAGGAUCACCCAUGUGAUAGCUAGGCUGUCUG [Lararariso] (Eterna round: R96, puzzle: Same State NG 1)”, the “apparent KD of MS2 coat protein” value runs as follows: (input ligand: FMN 200 uM) 24 nM; under setting [2], 191 nM; (input ligand: none) 1300 nM.
In the same order, the values of “CUCAACAACACAGGAUAUCCAGGUAAAAGACCUGGAGAAGGGUGACCAACAUGAGGAUCACCCAUGUGACAGCCAGGCUGUCUG [Isbitiqu] (Eterna round: R96, puzzle: Same State NG 1)” are 87.8 nM, 4.41 nM and 371 nM.
On to “CUGAAAUGUCAAGGAUAUCACGUCGAUUAGACGUGAGAAGGUGAUCUGCACAUGAGGAUCACCCAUGUGUUACAUGGAAAUCAG [Brourd's SSNG1/1-A2 mod 14] (Eterna round: R96, puzzle: Same State NG 1)”, for which the “apparent KD of MS2 coat protein” value by setting is: (input ligand: FMN 200 uM) 312 nM; under setting [2], 581 nM; (input ligand: none) 964 nM.
With “CUGAGCAAUCGAGGAUAUCACGUCGAUUAGACGUGAGAAGGCGAUCAUAACAUGAGGAUCACCCAUGUAUUACAUGAAGCUCAG [SSNG1/4-A2] (Eterna round: R96, puzzle: Same State NG 1)”, the “apparent KD of MS2 coat protein” value runs as follows: (input ligand: FMN 200 uM) 15.3 nM; under setting [2], 12.9 nM; (input ligand: none) 20.3 nM.
“CUGAGCGAUCAAGGAUAUCACGUCGUUUAGACGUGAGAAGGUGAUCCAUACAUGAGGAUCACCCAUGUAUAACAUGAAGCUCAG [SSNG1/8-A3] (Eterna round: R96, puzzle: Same State NG 1)”: the “apparent KD of MS2 coat protein” value worked out at 646 nM (input ligand: FMN 200 uM), 57 nM under setting [2] and 1540 nM (input ligand: none).
“CUUGAUACACAUGAGGAUCACCCAUGUAUCAAGCUUUUUGCUCGUGUUAUUAUUUCCUUUAUUAGGAAUAUUAGGAA [rhiju-sequester-tail] (puzzle: Sensor for hsa-mir-208a version 2)”: the “apparent KD of MS2 coat protein” value amounted to 24.9 nM under setting [3], 14.4 nM under setting [1] and 23.7 nM under setting [4].
With “CUUUUUAAUGCAGGAUAUGAUCAACAUGAGGAUCACCCAUGUGGUGUUGUGAGUAAGGAGAGUGAUCAGAAGGGCAUCUUCUCA [SS-NG2-LRO05] (Eterna round: R96, puzzle: Same State NG 2)”, the “apparent KD of MS2 coat protein” value was found to be 301 nM (input ligand: FMN 200 uM), 133 nM under setting [2] and 169 nM (input ligand: none).
On the same counts, the results for “CUUUUUCACUAUACAUGAGGAUCACCCAUGUUAUCAUCAUGAGAGGAUAUCGUAAUAGGAUUUUUCGAGAAGGCUCUAAAGUAU [JR_SSNG3_Sub079] (Eterna round: R96, puzzle: Same State NG 3)” are 26.3 nM, 43 nM and 45 nM.
On the same counts, the results for “GAAACAUGACGAGGAUAUGGAACAUGAGGAUCACCCAUGUAUGUUCCAUAACGCGAAUGACGAAUCCAGAAGGCGUCGUGAAAG [Mat - Same State NG 2 - JL mod - D28] (Eterna round: R96, puzzle: Same State NG 2)” are 33.6 nM, 177 nM and 233 nM.
With “GAAACAUGACGAGGAUAUGGUACAUGAGGAUCACCCAUGUAUGUACCACGACGCGUACGUCGAAUCCAGAAGGCGUCGUGAAAG [Mat - Same State NG 2 - JL mod - D20] (Eterna round: R96, puzzle: Same State NG 2)”, the “apparent KD of MS2 coat protein” value (input ligand: FMN 200 uM) is 27.8 nM, the “apparent KD of MS2 coat protein” value under setting [2] is 51.1 nM and the “apparent KD of MS2 coat protein” value (input ligand: none) came out at 86.4 nM.
In the same order, the values of “GAAAGGCCUACAGGAUAUACCACAGUCUUGUCGGUAGAAGGGUGGGACAUGAGGAUCACCCAUGUACACUCCCAGAUGGGAGUG [Ergeesis] (Eterna round: R96, puzzle: Same State NG 1)” are 767 nM, 135 nM and 476 nM.

Values taken from the supplement of paper PMC9170038.
